Experiments:
[1] = molecular target: ECD_FGFR1-Fc receptor (extracellular region of fibroblast growth factor receptor 1) (UniProt P11362)
[2] = molecular target: ECD_FGFR1-Fc receptor (extracellular region of fibroblast growth factor receptor 1) (UniProt P11362); remark: listed apart in the source

UniProt P11362, sequence (P11362 22-376): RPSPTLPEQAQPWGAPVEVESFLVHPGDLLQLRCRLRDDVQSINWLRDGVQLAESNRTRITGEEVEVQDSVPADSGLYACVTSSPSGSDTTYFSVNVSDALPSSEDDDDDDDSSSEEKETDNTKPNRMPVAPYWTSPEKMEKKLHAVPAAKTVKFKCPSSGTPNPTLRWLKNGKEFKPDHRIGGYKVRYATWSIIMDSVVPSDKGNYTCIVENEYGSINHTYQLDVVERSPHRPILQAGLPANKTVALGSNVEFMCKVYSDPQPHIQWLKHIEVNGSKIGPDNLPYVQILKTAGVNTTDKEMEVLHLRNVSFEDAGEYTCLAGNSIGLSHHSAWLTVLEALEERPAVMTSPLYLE

“FGF2 Cys78-α-amanitin/PrK96-MMAE conjugate (from UniProt P09038-2 23-155) (ligand)” showed an internalization of the DyLight550-labelled conjugate, intracellular fluorescence, NCI-H520 (FGFR1 positive) against HCC-15 (FGFR1 negative) cells [1] of 2 times, an internalization of the DyLight550-labelled conjugate, intracellular fluorescence, U2OS-FGFR1 against control U2OS cells [1] of 5 fold and a cytotoxicity (AlamarBlue viability), FGFR1-positive NCI-H446 cells, reduction of viability at the highest tested concentration; no toxicity for FGFR1-negative HCC-15 [2] of 95%.

Source: paper PMC6073801
